# Test results as given in patent US20190203248A1 (Bristol-Myers Squibb, published 2019).
# T1: β-klotho of differentiated 3T3-L1 adipocytes (mouse, UniProt Q99N32 1-1043)
# T1 sequence (looked up): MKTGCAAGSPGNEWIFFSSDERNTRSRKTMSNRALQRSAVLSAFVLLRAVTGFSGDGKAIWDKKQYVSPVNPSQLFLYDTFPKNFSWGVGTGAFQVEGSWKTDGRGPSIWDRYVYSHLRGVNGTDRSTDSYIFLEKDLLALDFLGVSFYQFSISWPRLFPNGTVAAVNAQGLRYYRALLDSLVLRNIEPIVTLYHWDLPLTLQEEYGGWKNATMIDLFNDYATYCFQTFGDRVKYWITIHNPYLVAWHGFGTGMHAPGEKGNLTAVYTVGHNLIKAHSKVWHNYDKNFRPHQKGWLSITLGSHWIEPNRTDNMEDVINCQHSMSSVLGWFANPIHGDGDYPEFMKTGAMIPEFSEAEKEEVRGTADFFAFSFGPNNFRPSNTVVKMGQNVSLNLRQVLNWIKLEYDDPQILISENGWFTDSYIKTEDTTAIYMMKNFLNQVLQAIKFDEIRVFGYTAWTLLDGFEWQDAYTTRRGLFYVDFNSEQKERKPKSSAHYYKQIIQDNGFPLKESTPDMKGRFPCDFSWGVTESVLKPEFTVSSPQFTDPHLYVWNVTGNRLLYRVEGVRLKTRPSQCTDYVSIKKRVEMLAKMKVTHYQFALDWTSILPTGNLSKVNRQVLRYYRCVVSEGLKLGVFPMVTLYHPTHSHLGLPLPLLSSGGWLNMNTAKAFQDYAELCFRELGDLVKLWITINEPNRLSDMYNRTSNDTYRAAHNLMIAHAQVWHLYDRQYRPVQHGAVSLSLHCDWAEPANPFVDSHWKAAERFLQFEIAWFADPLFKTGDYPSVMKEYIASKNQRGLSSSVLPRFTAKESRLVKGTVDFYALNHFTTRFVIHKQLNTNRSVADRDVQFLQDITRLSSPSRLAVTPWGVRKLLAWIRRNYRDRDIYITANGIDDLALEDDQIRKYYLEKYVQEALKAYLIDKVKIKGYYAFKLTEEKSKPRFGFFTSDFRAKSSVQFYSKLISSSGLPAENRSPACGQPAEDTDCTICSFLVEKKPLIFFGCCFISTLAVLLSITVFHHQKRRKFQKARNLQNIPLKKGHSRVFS
# B1: SABA1.2 (designed binder)
# chain: MGVSDVPRDLEVVAATPTSLLISWHSYYEQNSYYRITYGETGGNSPVQEFTVPYSQTTATISGLKPGVDYTITVYAVYGSKYYYPISINYRTEIEDEDEDEDED
# notes: also called core 1 10Fn3 comprising an (ED)5 extension
# B2: SABA1-FGF21v1 (designed binder)
# chain: MGVSDVPRDLEVVAATPTSLLISWHSYYEQNSYYRITYGETGGNSPVQEFTVPYSQTTATISGLKPGVDYTITVYAVYGSKYYYPISINYRTEIEKPSQGSGSGSGSGSGSGSPIPDSSPLLQFGGQVRQRYLYTDDAQQTEAHLEIREDGTVGGAADQSPESLLQLKALKPGVIQILGVKTSRFLCQRPDGALYGSLHFDPEACSFRELLLEDGYNVYQSEAHGLPLHLPGNKSPHRDPAPRGPARFLPLPGLPPALPEPPGILAPQPPDVGSSDPLSMVGPSQGRSPSYAS
# notes: Fusion: SABA core 1 with AdNT1 leader and AdCT7 tail, (GS)7 linker, FGF21 core with FNT3 leader and C-terminal S; also called SABA-FGF21v1 fusion; SABA1-FGF21 variant 1
# B3: SABA5.1 (designed binder)
# chain: MGVSDVPRDLEVVAATPTSLLISWEDDSYYSRYYRITYGETGGNSPVQEFTVPSDLYTATISGLKPGVDYTITVYAVTYDVTDLIMHEPISINYRTEIDKPSQHHHHHH
# notes: His6-tagged Adnectin core 5; same BC, DE and FG loops as SABA4
# Experiments:
# murine serum albumin [1] = target: T2, murine serum albumin (mouse, UniProt P07724 25-608); test: direct binding ELISA on plate-coated albumin, absorbance 450 nm
# T2 construct: also called MuSA; mouse serum albumin
# Method: (§1) For dose response assays, concentrations ranging from 0.1 nM up to 1 μM were used. After washing in PBST to remove unbound Adnectins™, anti-His mAb-HRP conjugate (R&D Systems, MN) diluted 1:2500 in casein block buffer was added to the bound His-tagged Adnectins™ for 1 hour at room temperature. Excess conjugate was removed by washing with PBST and bound Adnectins™ detected using TMB detection reagents (BD Biosciences) according to the manufacturer's instructions.
# human serum albumin [2] = target: T3, human serum albumin (human, UniProt P02768 25-609); test: as above
# T3 construct: also called HSA; HuSA
# Method: as §1
# rat serum albumin = rat serum albumin (rat, UniProt P02770 25-608); test: as above
# Method: as §1
# human serum albumin [3] = target: T3, human serum albumin; test: binding kinetics, HBS-P buffer, 25 C; 25 C, HBS-P buffer
# human serum albumin [4] = target: T3, human serum albumin; test: binding kinetics, HBS-P buffer, 25 C
# rhesus serum albumin [5] = target: T4, rhesus serum albumin (rhesus, UniProt Q28522 17-600); test: binding kinetics, HBS-P buffer, 25 C
# T4 construct: also called RhSA
# human serum albumin [6] = target: T3, human serum albumin; test: binding kinetics, HBS-P buffer, 37 C
# rhesus serum albumin [7] = target: T4, rhesus serum albumin; test: binding kinetics, HBS-P buffer, 37 C
# human serum albumin [8] = target: T3, human serum albumin; test: binding kinetics, MES buffer, pH 5.5
# rhesus serum albumin [9] = target: T4, rhesus serum albumin; test: binding kinetics, MES buffer, pH 5.5
# human serum albumin [10] = target: T3, human serum albumin; test: binding kinetics, HBS-P buffer, 37 C against 25 C
# rhesus serum albumin [11] = target: T4, rhesus serum albumin; test: binding kinetics, HBS-P buffer, 37 C against 25 C
# human serum albumin [12] = target: T3, human serum albumin; test: binding kinetics, MES buffer, pH 7.4
# rhesus serum albumin [13] = target: T4, rhesus serum albumin; test: binding kinetics, MES buffer, pH 7.4
# human serum albumin [14] = target: T3, human serum albumin; test: SPR (Biacore T100), HSA immobilized, 37 C, 30 µl/min
# Method: (§2) Serum albumins were dissolved in PBS buffer (10 mM sodium phosphate, 130 mM sodium chloride, pH 7.1) to a concentration of 10 mg/ml, and subsequently diluted to 8-10 μg/ml in 10 mM sodium acetate pH 5.0 for immobilization. Serum albumins were immobilized on a Series S CM5 sensor chip using standard ethyl(dimethylaminopropyl) carbodiimide (EDC)/N-hydroxysuccinimide (NHS) chemistry in HBS-EP+ running buffer at 25° C., following general manufacturer guidelines. Flow cell 1 was activated with EDC/NHS and blocked with ethanolamine. […] Kinetic experiments were performed in PBS buffer containing 0.05% tween-20 (running buffer) at either 25° C. or 37° C. […] These samples were injected across flow cells 1-4 for 300 s, with a 420 s dissociation time, at flow rates of 30 μl/min or 60 μl/min to check for mass transfer limitation. All surfaces were regenerated with 2 pulses of 10 mM glycine pH 2.0 at 30 μl/min for 30 s. Raw sensograms were “double-referenced” by subtracting flow cell 1 data from flow cell 2, 3 or 4 data, and then subtracting a separate buffer cycle from each sensogram. The double-referenced sensogram data was fitted to a 1:1 Langmuir model using Biacore T100 Evaluation software version 2.0.2 to determine the association rate constant (ka), the dissociation rate constant (kd), and the equilibrium dissociation constant (KD).
# [15] = target: T5, cynomolgous monkey serum albumin (cynomolgous monkey, UniProt A2V9Z4 25-608); test: SPR (Biacore T100), CySA immobilized, 37 C, 30 µl/min
# T5 construct: also called CySA
# Method: as §2
# [16] = target: T5, cynomolgous monkey serum albumin; test: SPR (Biacore T100), CySA immobilized, 25 C, 30 µl/min
# Method: as §2
# human serum albumin [17] = target: T3, human serum albumin; test: SPR (Biacore T100), HSA immobilized, 25 C, 30 µl/min
# Method: as §2
# murine serum albumin [18] = target: T2, murine serum albumin; test: SPR (Biacore T100), immobilized MuSA, analyte series 1000 to 62.5 nM, 37 C
# Method: as §2
# [19] = target: T1, β-klotho of differentiated 3T3-L1 …; test: cell-based or functional assay
# human β-klotho [20] = target: T6, human β-klotho (human, UniProt Q86Z14 1-1044); test: cell-based or functional assay
# human β-klotho [21] = target: T6, human β-klotho; test: cell-based or functional assay; remark: listed apart in the source
# human serum albumin [22] = target: T3, human serum albumin; test: isothermal titration calorimetry, 37 C, PBS
# Method: SABA-FGF21 fusion protein plus buffer was placed in the instrument sample cell at a concentration range of 0.4 to 1.0 mg/mL protein. The matching buffer was placed in the reference cell. Concentrations were determined using extinction coefficients calculated from the protein sequences of the pure proteins. The instrument reaction cell was equilibrated at 37° C. […] The resultant thermogram data was fitted using Origin™ evaluation software package (Microcal Inc.) version 2.0.2 to estimate the stochiometry, enthalpy, and equilibrium disassociation constant (KD) of the protein—protein binding reaction.
# rhesus serum albumin [23] = target: T4, rhesus serum albumin; test: comment in summary table
# murine serum albumin [24] = target: T2, murine serum albumin; test: SPR (Biacore), albumin immobilized on CM5 chip
# Method: In addition, binding to albumin was carried out under various pH conditions ranging from pH 5.5 to pH 7.4.
# T4 sequence (Q28522 17-600 limits assumed): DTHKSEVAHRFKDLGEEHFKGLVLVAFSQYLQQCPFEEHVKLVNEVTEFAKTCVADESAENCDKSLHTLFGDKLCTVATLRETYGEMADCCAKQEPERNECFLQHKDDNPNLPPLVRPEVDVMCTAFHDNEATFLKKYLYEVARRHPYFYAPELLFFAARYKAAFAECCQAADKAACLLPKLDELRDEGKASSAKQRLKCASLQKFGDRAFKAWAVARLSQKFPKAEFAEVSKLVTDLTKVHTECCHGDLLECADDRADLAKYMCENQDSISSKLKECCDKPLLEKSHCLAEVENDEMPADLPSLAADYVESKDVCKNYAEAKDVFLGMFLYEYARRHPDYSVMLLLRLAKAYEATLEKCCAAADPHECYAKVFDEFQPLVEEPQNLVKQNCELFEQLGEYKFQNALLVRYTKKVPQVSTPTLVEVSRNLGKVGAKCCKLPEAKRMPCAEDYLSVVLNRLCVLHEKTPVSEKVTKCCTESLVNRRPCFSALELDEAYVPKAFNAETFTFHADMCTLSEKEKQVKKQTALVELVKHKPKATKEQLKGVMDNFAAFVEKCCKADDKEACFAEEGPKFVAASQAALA
# T5 sequence (A2V9Z4 25-608 limits assumed): as the sequence (Q28522 17-600 limits assumed) above
# T2 sequence (P07724 25-608 limits assumed): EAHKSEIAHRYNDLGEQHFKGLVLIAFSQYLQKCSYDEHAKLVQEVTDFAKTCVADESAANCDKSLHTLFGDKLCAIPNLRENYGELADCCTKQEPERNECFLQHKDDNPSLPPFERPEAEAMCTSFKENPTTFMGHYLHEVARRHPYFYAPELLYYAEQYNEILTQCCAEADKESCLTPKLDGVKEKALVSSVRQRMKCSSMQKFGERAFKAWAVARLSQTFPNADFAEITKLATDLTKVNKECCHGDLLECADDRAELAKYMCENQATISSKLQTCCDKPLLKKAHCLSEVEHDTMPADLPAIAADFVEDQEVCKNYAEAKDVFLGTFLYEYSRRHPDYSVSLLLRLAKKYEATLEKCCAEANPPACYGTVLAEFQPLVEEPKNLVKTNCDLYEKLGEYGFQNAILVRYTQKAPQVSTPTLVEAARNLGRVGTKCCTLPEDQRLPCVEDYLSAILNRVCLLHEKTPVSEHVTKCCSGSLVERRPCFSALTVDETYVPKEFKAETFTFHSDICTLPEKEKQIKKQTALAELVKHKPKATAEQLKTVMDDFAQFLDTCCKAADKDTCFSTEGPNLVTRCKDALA
# Sequence of rat serum albumin (P02770 25-608 limits assumed): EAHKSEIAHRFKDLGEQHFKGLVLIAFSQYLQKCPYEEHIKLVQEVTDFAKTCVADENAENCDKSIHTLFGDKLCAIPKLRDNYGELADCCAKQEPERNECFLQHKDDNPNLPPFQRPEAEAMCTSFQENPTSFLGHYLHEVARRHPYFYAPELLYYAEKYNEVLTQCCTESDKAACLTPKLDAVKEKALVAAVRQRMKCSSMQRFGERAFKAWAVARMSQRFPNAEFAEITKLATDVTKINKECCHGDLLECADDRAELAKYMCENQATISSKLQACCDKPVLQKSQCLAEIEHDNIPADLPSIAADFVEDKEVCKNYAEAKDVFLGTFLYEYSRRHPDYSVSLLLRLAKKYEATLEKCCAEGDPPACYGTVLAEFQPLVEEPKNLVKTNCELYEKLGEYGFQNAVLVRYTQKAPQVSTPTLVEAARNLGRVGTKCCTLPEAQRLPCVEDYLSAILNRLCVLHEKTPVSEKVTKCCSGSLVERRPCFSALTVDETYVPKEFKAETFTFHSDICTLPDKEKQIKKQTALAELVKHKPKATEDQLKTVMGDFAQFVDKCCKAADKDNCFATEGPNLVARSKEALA
binder,measurement,setting,value
B1,binding result,murine serum albumin [1],no binding (tested: 1000 nM)
same,EC50 (read off the curve),human serum albumin [2],~7 nM
same,binding result,rat serum albumin,no binding (tested: 1000 nM)
same,kon,human serum albumin [3],8210 M⁻¹ s⁻¹
same,Kd,human serum albumin [4],55.3 nM
same,koff,human serum albumin [4],0.000443 s⁻¹
same,Kd,rhesus serum albumin [5],580 nM
same,koff,rhesus serum albumin [5],0.00378 s⁻¹
same,kon,rhesus serum albumin [5],6600 M⁻¹ s⁻¹
same,Kd,human serum albumin [6],24.1 nM
same,koff,human serum albumin [6],0.000815 s⁻¹
same,kon,human serum albumin [6],33800 M⁻¹ s⁻¹
same,Kd,rhesus serum albumin [7],977 nM
same,koff,rhesus serum albumin [7],0.0185 s⁻¹
same,kon,rhesus serum albumin [7],18900 M⁻¹ s⁻¹
same,Kd,human serum albumin [8],28.6 nM
same,koff,human serum albumin [8],0.00027 s⁻¹
same,kon,human serum albumin [8],9440 M⁻¹ s⁻¹
same,Kd,rhesus serum albumin [9],359 nM
same,koff,rhesus serum albumin [9],0.00272 s⁻¹
same,kon,rhesus serum albumin [9],7570 M⁻¹ s⁻¹
same,fold increase in affinity at 37 C against 25 C,human serum albumin [10],~2 fold
same,ratio of affinity at 37 C against 25 C,rhesus serum albumin [11],0.5 fold
same,Kd,human serum albumin [12],41.9 nM
same,koff,human serum albumin [12],0.000388 s⁻¹
same,kon,human serum albumin [12],9260 M⁻¹ s⁻¹
same,Kd,rhesus serum albumin [13],479 nM
same,koff,rhesus serum albumin [13],0.00295 s⁻¹
same,kon,rhesus serum albumin [13],6160 M⁻¹ s⁻¹
B2,Kd,human serum albumin [14],190 nM
same,koff,human serum albumin [14],0.00111 s⁻¹
same,kon,human serum albumin [14],5960 M⁻¹ s⁻¹
same,Kd,[15],2800 nM
same,koff,[15],0.0123 s⁻¹
same,kon,[15],4440 M⁻¹ s⁻¹
same,Kd,[16],1200 nM
same,koff,[16],0.0047 s⁻¹
same,kon,[16],3930 M⁻¹ s⁻¹
same,Kd,human serum albumin [17],98 nM
same,koff,human serum albumin [17],0.000333 s⁻¹
same,kon,human serum albumin [17],3380 M⁻¹ s⁻¹
same,binding result,murine serum albumin [18],no binding (tested: 1000 nM)
same,"EC50 (nM), pERK assay in 3T3-L1 adipocytes",[19],11 nM
same,"Fold Activation, pERK assay in 3T3-L1 adipocytes",[19],1.8 fold
same,"fold shift of potency (EC50) relative to His-tagged FGF21, pERK 1/2 assay",human β-klotho [20],~15 fold
same,"EC50 (nM), pERK 1/2 assay in HEK β-Klotho expressing stable cells",human β-klotho [21],102 nM
same,Kd,human serum albumin [22],3.8 nM
same,ΔH,human serum albumin [22],-15.4 kcal/mol
B3,binding result,rhesus serum albumin [23],binds
same,binding result,murine serum albumin [24],no binding
